The supplement of paper PMC10065799, “High-throughput profiling of sequence recognition by tyrosine kinases and SH2 domains using bacterial peptide display” (eLife, 2023)

Key:
[1] = system: AncSZ; assay: phosphorylation enrichment, bacterial display (enrichment ratio); higher = better substrate or ligand; peptides without Tyr show the background
[2] = biological target: EPHB1 (UniProt P54762); assay: as above
[3] = biological target: EPHB2 (UniProt P29323); assay: as above
[4] = biological target: FGFR1 (UniProt P11362); assay: as above
[5] = biological target: FGFR3 (UniProt P22607); assay: as above
Sequence of FGFR3 (P22607 whole entry, looked up): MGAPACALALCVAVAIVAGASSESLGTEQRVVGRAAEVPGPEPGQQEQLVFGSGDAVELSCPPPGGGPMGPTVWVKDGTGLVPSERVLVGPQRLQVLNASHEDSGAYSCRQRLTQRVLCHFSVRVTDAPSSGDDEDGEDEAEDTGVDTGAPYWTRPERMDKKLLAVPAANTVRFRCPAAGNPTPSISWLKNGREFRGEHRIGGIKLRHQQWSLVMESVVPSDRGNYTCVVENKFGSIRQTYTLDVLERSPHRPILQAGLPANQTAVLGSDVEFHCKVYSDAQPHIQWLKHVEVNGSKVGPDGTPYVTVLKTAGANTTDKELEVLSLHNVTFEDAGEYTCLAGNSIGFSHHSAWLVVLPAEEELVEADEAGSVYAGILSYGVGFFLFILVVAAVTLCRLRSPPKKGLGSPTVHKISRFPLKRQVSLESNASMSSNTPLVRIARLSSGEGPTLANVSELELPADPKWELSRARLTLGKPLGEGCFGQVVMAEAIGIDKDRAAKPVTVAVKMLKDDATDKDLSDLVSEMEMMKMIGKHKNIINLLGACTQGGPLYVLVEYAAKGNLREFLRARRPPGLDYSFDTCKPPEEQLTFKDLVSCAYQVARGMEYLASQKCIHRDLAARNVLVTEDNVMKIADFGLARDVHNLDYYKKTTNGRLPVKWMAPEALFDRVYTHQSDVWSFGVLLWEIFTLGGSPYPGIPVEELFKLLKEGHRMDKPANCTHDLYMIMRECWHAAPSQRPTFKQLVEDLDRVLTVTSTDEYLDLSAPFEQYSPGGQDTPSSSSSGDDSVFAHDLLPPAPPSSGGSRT

[6] = system: Fer (mouse); assay: as above
[7] = biological target: Fes (UniProt P07332); assay: as above
Sequence of Fes (P07332 whole entry, looked up): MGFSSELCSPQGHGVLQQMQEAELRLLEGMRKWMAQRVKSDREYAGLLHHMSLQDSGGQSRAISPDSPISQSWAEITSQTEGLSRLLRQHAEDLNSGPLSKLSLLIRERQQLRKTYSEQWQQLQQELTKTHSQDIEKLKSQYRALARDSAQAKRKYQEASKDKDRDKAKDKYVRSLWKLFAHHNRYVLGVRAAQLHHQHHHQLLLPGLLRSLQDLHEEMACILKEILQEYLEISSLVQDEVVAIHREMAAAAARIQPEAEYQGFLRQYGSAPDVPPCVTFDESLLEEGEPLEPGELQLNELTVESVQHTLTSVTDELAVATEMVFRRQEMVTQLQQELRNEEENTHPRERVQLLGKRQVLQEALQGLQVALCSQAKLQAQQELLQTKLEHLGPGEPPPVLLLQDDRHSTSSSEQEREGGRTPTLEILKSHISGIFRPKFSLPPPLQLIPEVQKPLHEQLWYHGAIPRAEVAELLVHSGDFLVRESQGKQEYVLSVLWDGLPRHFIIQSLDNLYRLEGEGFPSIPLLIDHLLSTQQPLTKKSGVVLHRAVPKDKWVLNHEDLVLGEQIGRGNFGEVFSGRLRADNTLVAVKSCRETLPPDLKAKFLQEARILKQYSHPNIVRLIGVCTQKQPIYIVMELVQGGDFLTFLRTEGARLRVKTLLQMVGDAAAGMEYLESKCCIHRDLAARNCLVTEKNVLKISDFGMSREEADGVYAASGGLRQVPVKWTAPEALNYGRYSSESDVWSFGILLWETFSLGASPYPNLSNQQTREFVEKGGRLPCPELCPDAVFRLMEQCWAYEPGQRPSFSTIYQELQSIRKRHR

[8] = biological target: Fyn (UniProt P06241); assay: as above
Sequence of Fyn (P06241 whole entry, looked up): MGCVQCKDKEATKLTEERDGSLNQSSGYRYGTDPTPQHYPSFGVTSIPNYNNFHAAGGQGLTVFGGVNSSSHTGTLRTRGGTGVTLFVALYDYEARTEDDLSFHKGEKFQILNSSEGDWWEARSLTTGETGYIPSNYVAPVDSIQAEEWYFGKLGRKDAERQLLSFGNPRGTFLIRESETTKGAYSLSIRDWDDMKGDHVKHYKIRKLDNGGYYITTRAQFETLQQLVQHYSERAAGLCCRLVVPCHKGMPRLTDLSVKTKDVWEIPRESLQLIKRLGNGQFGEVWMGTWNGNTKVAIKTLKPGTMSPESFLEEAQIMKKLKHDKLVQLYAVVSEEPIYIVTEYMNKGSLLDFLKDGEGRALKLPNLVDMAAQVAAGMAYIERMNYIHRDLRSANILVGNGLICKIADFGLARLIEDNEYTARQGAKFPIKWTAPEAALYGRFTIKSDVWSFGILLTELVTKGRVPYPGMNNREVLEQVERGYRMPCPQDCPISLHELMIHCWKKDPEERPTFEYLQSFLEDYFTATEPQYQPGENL

[9] = biological target: Hck (UniProt P08631); assay: as above
Sequence of Hck (P08631 whole entry, looked up): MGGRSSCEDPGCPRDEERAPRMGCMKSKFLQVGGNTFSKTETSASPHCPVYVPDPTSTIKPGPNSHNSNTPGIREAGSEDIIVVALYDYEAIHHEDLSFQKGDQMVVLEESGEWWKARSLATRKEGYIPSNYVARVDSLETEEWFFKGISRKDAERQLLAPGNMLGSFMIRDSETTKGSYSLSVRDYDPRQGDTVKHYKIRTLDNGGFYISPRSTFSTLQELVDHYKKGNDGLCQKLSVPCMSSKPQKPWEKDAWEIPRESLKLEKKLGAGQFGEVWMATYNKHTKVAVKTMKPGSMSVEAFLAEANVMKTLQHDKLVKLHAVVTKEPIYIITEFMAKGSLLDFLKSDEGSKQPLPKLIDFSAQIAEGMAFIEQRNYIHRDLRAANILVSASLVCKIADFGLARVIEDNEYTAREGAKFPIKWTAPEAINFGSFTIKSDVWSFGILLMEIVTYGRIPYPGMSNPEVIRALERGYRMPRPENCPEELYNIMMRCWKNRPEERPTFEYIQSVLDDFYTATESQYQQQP

[10] = biological target: Jak2 (UniProt O60674); assay: as above
Sequence of Jak2 (O60674 whole entry, looked up): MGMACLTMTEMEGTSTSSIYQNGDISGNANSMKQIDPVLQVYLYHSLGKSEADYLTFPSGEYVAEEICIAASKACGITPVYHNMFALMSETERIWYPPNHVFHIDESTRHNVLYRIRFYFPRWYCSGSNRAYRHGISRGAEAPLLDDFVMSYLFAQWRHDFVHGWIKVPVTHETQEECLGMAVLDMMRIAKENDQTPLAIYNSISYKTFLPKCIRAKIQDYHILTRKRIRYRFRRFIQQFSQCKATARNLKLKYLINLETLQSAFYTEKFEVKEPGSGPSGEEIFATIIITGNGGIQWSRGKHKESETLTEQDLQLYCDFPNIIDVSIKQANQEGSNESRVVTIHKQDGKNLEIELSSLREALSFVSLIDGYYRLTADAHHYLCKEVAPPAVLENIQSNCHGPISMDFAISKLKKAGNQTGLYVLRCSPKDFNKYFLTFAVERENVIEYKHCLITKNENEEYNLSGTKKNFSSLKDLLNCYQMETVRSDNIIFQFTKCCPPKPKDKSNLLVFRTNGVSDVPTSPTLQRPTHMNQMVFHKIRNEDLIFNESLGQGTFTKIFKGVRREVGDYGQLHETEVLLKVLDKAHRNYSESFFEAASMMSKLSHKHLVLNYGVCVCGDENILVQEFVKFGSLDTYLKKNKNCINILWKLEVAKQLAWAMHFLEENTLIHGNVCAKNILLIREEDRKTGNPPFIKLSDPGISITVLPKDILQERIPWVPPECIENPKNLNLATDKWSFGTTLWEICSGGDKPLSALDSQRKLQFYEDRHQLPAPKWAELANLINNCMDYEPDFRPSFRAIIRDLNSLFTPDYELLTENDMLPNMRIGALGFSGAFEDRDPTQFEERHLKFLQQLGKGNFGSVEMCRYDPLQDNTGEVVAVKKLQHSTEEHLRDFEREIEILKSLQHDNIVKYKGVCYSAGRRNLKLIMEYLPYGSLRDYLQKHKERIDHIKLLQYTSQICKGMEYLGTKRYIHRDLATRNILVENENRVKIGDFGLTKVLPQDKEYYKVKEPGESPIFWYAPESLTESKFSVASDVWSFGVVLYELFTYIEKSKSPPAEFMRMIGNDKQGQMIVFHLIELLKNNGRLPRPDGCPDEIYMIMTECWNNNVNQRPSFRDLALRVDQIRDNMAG

[11] = biological target: MERTK (UniProt Q12866); assay: as above
[12] = system: c-Abl (mouse); assay: as above
[13] = system: c-Src; assay: as above
[14] = biological target: Grb2 SH2 (UniProt P62993); assay: SH2 binding enrichment of the phosphorylated peptide, bacterial display (enrichment ratio); higher = better substrate or ligand; peptides without Tyr show the background
[15] = biological target: SHP2-C SH2; assay: as above
[16] = biological target: c-Src SH2; assay: as above
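For SH2 binding enrichment of the phosphorylated peptide, bacterial display in this document: peptide library displayed on the E. coli surface as eCPX fusions, selected cells deep-sequenced, score is each peptide's frequency after selection divided by its frequency in the input.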
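For phosphorylation enrichment, bacterial display in this document: 11-residue human phosphosite peptides and single-mutation variants displayed on the E. coli surface, counted by deep sequencing, each peptide's frequency after selection divided by its frequency in the unselected input library; frequency after pTyr selection over input frequency; kinase dosed for 20-30% of maximal phosphorylation in three min.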

Sequence of EPHB2 (P29323 whole entry, looked up): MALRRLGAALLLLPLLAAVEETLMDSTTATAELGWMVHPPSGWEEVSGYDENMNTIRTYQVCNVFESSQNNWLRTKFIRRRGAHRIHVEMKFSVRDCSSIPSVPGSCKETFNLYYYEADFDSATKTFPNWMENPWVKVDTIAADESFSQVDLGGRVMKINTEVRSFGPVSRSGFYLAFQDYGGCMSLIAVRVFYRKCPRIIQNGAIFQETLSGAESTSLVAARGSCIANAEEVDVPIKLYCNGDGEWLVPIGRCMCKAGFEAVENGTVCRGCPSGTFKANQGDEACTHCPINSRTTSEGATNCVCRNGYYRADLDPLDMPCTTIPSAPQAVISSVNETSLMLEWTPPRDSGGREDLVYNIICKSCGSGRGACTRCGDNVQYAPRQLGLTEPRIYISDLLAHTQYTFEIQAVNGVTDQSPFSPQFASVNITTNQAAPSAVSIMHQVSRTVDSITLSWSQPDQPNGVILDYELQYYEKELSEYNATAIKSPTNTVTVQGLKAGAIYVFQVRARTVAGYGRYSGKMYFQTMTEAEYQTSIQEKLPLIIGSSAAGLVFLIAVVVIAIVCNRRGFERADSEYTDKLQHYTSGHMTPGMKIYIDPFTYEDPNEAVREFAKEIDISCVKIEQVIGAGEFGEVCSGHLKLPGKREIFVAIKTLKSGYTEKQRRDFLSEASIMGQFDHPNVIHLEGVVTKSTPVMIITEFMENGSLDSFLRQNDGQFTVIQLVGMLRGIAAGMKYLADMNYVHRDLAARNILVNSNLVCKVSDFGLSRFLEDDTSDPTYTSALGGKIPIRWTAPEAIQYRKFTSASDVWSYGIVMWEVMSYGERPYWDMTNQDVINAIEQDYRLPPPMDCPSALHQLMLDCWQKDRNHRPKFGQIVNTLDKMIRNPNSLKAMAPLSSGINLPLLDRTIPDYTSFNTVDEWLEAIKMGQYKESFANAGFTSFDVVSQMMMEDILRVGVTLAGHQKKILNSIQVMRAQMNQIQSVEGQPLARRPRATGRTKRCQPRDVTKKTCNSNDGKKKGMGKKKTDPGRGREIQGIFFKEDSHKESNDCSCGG

Row | SH2 binding enrichment [14] | SH2 binding enrichment [15] | SH2 binding enrichment [16] | Sequence | phosphorylation enrichment [1] | phosphorylation enrichment [2] | phosphorylation enrichment [3] | phosphorylation enrichment [4] | phosphorylation enrichment [5] | phosphorylation enrichment [6] | phosphorylation enrichment [7] | phosphorylation enrichment [8] | phosphorylation enrichment [9] | phosphorylation enrichment [10] | phosphorylation enrichment [11] | phosphorylation enrichment [12] | phosphorylation enrichment [13]
1 | 0.872 | 0.67 | 0.619 | TVVGLYQKSSL [MYH7_Y609] | 0.973 | 0.567 | 0.638 | 0.483 | 0.75 | 0.675 | 0.988 | 0.55 | 0.685 | 0.849 | 0.627 | 0.793 | 0.483
2 | 0.997 | 0.722 | 0.473 | TWSSSYRSDRL [CRYBB1_Y131] | 0.682 | 0.441 | 0.608 | 0.398 | 0.389 | 0.477 | 1.07 | 0.456 | 0.419 | 0.621 | 0.448 | 0.593 | 0.451
3 | 0.827 | 0.77 | 0.549 | VATSWYRSPEL [CDKL5_Y177_R175S] | 0.768 | 0.417 | 0.435 | 0.553 | 0.545 | 0.409 | 0.656 | 0.466 | 0.469 | 0.548 | 0.412 | 0.427 | 0.344
4 | 0.765 | 0.596 | 0.465 | VDGSLYKTHPQ [HK1_Y417] | 0.472 | 0.436 | 0.389 | 0.338 | 0.419 | 0.421 | 0.556 | 0.44 | 0.365 | 0.409 | 0.378 | 0.425 | 0.385
5 | 0.742 | 0.529 | 0.374 | VDLSKCITTIA [FAS_Y232_Y232C] | 0.975 | 0.626 | 0.533 | 0.461 | 0.641 | 0.413 | 1.01 | 0.402 | 0.431 | 0.697 | 0.364 | 0.681 | 0.308
6 | 0.957 | 1.04 | 0.602 | VDTFWYKFLKR [EPM2A_Y86] | 1.21 | 0.657 | 0.629 | 0.553 | 0.716 | 0.525 | 1.18 | 0.406 | 0.467 | 1.05 | 0.432 | 0.78 | 0.371
7 | 0.654 | 0.633 | 2.11 | VEGISYDFIPT [CBS_Y308_G307S] | 1.28 | 0.578 | 0.568 | 0.564 | 0.941 | 0.96 | 0.982 | 0.529 | 1.9 | 0.984 | 2.96 | 0.754 | 0.596
8 | 0.947 | 0.749 | 0.951 | VFLGAYDCFLP [SLC22A5_Y486_R488C_YF] | 1.6 | 2.6 | 4.47 | 0.631 | 0.757 | 4.68 | 1.28 | 5.7 | 3.27 | 1.17 | 5.67 | 0.953 | 4.75
9 | 0.63 | 0.571 | 0.369 | VGSEDYGRDLT [SPTAN1_Y1792] | 1.1 | 0.626 | 0.587 | 0.564 | 1.04 | 0.621 | 1.44 | 0.588 | 0.592 | 1.24 | 0.456 | 1.04 | 0.513
10 | 0.956 | 0.674 | 0.737 | VGTKWYMAPEV [ACVRL1_Y375_R374W] | 0.899 | 1.78 | 1.93 | 0.827 | 0.747 | 0.374 | 0.764 | 0.364 | 0.458 | 0.963 | 2.9 | 0.726 | 0.416
11 | 1.12 | 0.888 | 1.02 | VKANTYEKYWP [GATM_Y100] | 0.785 | 0.59 | 0.825 | 0.454 | 0.471 | 0.506 | 0.71 | 1.32 | 1.01 | 0.728 | 0.976 | 0.492 | 2.02
12 | 1.46 | 0.998 | 0.852 | VLSIDYFFPPQ [AR_Y552_P549S_YF] | 5.83 | 1.08 | 0.843 | 12.7 | 10.5 | 0.516 | 1.12 | 0.497 | 0.572 | 1.58 | 0.719 | 0.784 | 0.827
13 | 0.915 | 0.632 | 2.71 | VLVSQYEKLNA [AMZ2_Y26] | 0.619 | 0.524 | 0.341 | 0.362 | 0.548 | 0.417 | 0.732 | 0.438 | 0.467 | 0.638 | 0.434 | 0.578 | 0.389
14 | 1.74 | 0.551 | 0.625 | VNFGAYINDFK [GLB1_Y488_YF] | 0.909 | 0.545 | 0.568 | 0.459 | 0.621 | 0.393 | 0.997 | 0.498 | 0.441 | 0.83 | 0.352 | 0.558 | 0.369
